{"source": "paper PMC6441497", "tested_on": "Pho4 (yeast)", "experiment": "EMSA", "settings": "EMSA: 10 mM Tris-HCl pH 7.6, 1 mM MgCl2, 60 mM KCl, 3 mg/ml BSA, 1% glycerol, 1% Ficoll, 1 mM DTT, 1 ug poly(dI-dC), 100 ng calf thymus DNA, 20 ul, 10 min …", "data": [{"substance": "601 free DNA with Pho4 site", "values": [{"measurement": "Kd", "value": 0.24, "unit": "µM"}]}]}
